Measurements: patent US20250223358A1 (ANTENGENE BIOLOGICS, published 2025)

Assays:
human CD3 [1] = biological target: T1, human CD3 (human, UniProt P07766 23-207; P04234 22-171; P09693 23-182); experiment: cell-based or functional assay
human CD3 [2] = biological target: T1, human CD3; experiment: FACS on Jurkat cells

T1 sequence (P07766 23-207, chain 1 of 3): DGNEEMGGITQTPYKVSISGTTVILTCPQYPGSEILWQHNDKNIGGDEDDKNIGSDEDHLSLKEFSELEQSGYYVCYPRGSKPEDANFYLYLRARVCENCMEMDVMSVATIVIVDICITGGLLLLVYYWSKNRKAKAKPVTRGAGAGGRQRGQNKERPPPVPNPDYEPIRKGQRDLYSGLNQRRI
T1 sequence (P04234 22-171, chain 2 of 3): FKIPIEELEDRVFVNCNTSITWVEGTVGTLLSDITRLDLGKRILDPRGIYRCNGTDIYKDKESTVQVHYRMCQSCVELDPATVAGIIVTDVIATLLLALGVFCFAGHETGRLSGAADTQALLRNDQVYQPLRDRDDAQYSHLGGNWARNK
T1 sequence (P09693 23-182, chain 3 of 3): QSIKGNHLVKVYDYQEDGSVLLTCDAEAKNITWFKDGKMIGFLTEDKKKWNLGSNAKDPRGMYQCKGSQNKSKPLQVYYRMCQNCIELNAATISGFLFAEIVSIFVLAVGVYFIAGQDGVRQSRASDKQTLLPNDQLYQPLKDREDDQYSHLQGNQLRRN

Binder | EC50_Fold change (Jurkat-NFAT-luciferase activation, normalized to ch40-C12-C10-E9) (human CD3 [1]) [fold] | Top FACS signal_Fold change (Jurkat-NFAT-luciferase activation, normalized to ch40-C12-C10-E9) (human CD3 [1]) [fold] | EC50 (human CD3 [2]) [nM] | Top FACS signal (human CD3 [2])
hu40E9-L2H3 (antibody, V domains shown, humanized 40-C12-C10-E9) VH: EVQLVQSGAEVKKPGSSVKVSCKASGYTFSSYVIHWVRQAPGQGLEWMGYINPYNDVIKYNEKFKGRVTLTSDKSTSTAYMELSSLRSEDTAVYYCARDSYYSYDGFAYWGQGTLVTVSS VL: EIVLTQSPDFQSVTPKEKVTITCSASSSVSYMHWYQQKPDQSPKRLIYDTSKLASGVPSRFSGSGSGTDFTLTINSLEAEDAATYYCQQWSSNPPTFGGGTKVEIK | 2.43 | 1.18 | 0.65 | 1580
hu40E9-L2H1 (antibody, V domains shown, humanized 40-C12-C10-E9) VH: EVQLVQSGAEVKKPGSSVKVSCKASGGTFSSYVIHWVRQAPGQGLEWMGYINPYNDVIKYNEKFKGRVTITADKSTSTAYMELSSLRSEDTAVYYCARDSYYSYDGFAYWGQGTLVTVSS VL: EIVLTQSPDFQSVTPKEKVTITCSASSSVSYMHWYQQKPDQSPKRLIYDTSKLASGVPSRFSGSGSGTDFTLTINSLEAEDAATYYCQQWSSNPPTFGGGTKVEIK | 5.73 | 1.37 | 0.73 | 892
hu40E9-L2H2 (antibody, V domains shown, humanized 40-C12-C10-E9) VH: EVQLVQSGAEVKKPGSSVKVSCKASGYTFSSYVIHWVRQAPGQGLEWMGYINPYNDVIKYNEKFKGRVTITADKSTSTAYMELSSLRSEDTAVYYCARDSYYSYDGFAYWGQGTLVTVSS VL: EIVLTQSPDFQSVTPKEKVTITCSASSSVSYMHWYQQKPDQSPKRLIYDTSKLASGVPSRFSGSGSGTDFTLTINSLEAEDAATYYCQQWSSNPPTFGGGTKVEIK | 2.14 | 1.28 | 0.81 | 1570

Results, then the binder that gave them:

EC50_Fold change (Jurkat-NFAT-luciferase activation, normalized to ch40-C12-C10-E9) (human CD3 [1]) [fold] | Top FACS signal_Fold change (Jurkat-NFAT-luciferase activation, normalized to ch40-C12-C10-E9) (human CD3 [1]) [fold] | EC50 (human CD3 [2]) [nM] | Top FACS signal (human CD3 [2]) | Binder
3.77 | 0.74 | 1.16 | 1410 | hu40E9-L2H3-D105E.H (antibody, V domains shown) VH: EVQLVQSGAEVKKPGSSVKVSCKASGYTFSSYVIHWVRQAPGQGLEWMGYINPYNDVIKYNEKFKGRVTLTSDKSTSTAYMELSSLRSEDTAVYYCARDSYYSYEGFAYWGQGTLVTVSS VL: EIVLTQSPDFQSVTPKEKVTITCSASSSVSYMHWYQQKPDQSPKRLIYDTSKLASGVPSRFSGSGSGTDFTLTINSLEAEDAATYYCQQWSSNPPTFGGGTKVEIK
0.65 | 0.82 | 0.32 | 1450 | hu40E9-L2H3-D56G.H (antibody, V domains shown) VH: EVQLVQSGAEVKKPGSSVKVSCKASGYTFSSYVIHWVRQAPGQGLEWMGYINPYNGVIKYNEKFKGRVTLTSDKSTSTAYMELSSLRSEDTAVYYCARDSYYSYDGFAYWGQGTLVTVSS VL: EIVLTQSPDFQSVTPKEKVTITCSASSSVSYMHWYQQKPDQSPKRLIYDTSKLASGVPSRFSGSGSGTDFTLTINSLEAEDAATYYCQQWSSNPPTFGGGTKVEIK
1.19 | 0.91 | 0.31 | 957 | hu40E9-L2H3-D99E.H (antibody, V domains shown) VH: EVQLVQSGAEVKKPGSSVKVSCKASGYTFSSYVIHWVRQAPGQGLEWMGYINPYNDVIKYNEKFKGRVTLTSDKSTSTAYMELSSLRSEDTAVYYCARESYYSYDGFAYWGQGTLVTVSS VL: EIVLTQSPDFQSVTPKEKVTITCSASSSVSYMHWYQQKPDQSPKRLIYDTSKLASGVPSRFSGSGSGTDFTLTINSLEAEDAATYYCQQWSSNPPTFGGGTKVEIK
